IntAct's records for PubMed 31515488

B1: Carbonyl reductase [NADPH] 3 (Homo sapiens), O75828 (parent)
chain: MSSCSRVALVTGANRGIGLAIARELCRQFSGDVVLTARDVARGQAAVQQLQAEGLSPRFHQLDIDDLQSIRALRDFLRKEYGGLNVLVNNAAVAFKSDDPMPFDIKAEMTLKTNFFATRNMCNELLPIMKPHGRVVNISSLQCLRAFENCSEDLQERFHSETLTEGDLVDLMKKFVEDTKNEVHEREGWPNSPYGVSKLGVTVLSRILARRLDEKRKADRILVNACCPGPVKTDMDGKDSIRTVEEGAETPVYLALLPPDATEPQGQLVHDKVVQNW
B2: Tripartite motif-containing protein 10 (Homo sapiens), Q9UDY6 (parent)
chain: MASAASVTSLADEVNCPICQGTLREPVTIDCGHNFCRACLTRYCEIPGPDLEESPTCPLCKEPFRPGSFRPNWQLANVVENIERLQLVSTLGLGEEDVCQEHGEKIYFFCEDDEMQLCVVCREAGEHATHTMRFLEDAAAPYREQIHKCLKCLRKEREEIQEIQSRENKRMQVLLTQVSTKRQQVISEFAHLRKFLEEQQSILLAQLESQDGDILRQRDEFDLLVAGEICRFSALIEELEEKNERPARELLTDIRSTLIRCETRKCRKPVAVSPELGQRIRDFPQQALPLQREMKMFLEKLCFELDYEPAHISLDPQTSHPKLLLSEDHQRAQFSYKWQNSPDNPQRFDRATCVLAHTGITGGRHTWVVSIDLAHGGSCTVGVVSEDVQRKGELRLRPEEGVWAVRLAWGFVSALGSFPTRLTLKEQPRQVRVSLDYEVGWVTFTNAVTREPIYTFTASFTRKVIPFFGLWGRGSSFSLSS
B3: Melanoma-associated antigen 8 (Homo sapiens), P43361 (parent)
chain: MLLGQKSQRYKAEEGLQAQGEAPGLMDVQIPTAEEQKAASSSSTLIMGTLEEVTDSGSPSPPQSPEGASSSLTVTDSTLWSQSDEGSSSNEEEGPSTSPDPAHLESLFREALDEKVAELVRFLLRKYQIKEPVTKAEMLESVIKNYKNHFPDIFSKASECMQVIFGIDVKEVDPAGHSYILVTCLGLSYDGLLGDDQSTPKTGLLIIVLGMILMEGSRAPEEAIWEALSVMGLYDGREHSVYWKLRKLLTQEWVQENYLEYRQAPGSDPVRYEFLWGPRALAETSYVKVLEHVVRVNARVRISYPSLHEEALGEEKGV
B4: Germ cell-less protein-like 1 (Homo sapiens), Q96IK5 (parent)
chain: MGSLSSRVLRQPRPALAQQAQGARAGGSARRPDTGDDAAGHGFCYCAGSHKRKRSSGSFCYCHPDSETDEDEEEGDEQQRLLNTPRRKKLKSTSKYIYQTLFLNGENSDIKICALGEEWSLHKIYLCQSGYFSSMFSGSWKESSMNIIELEIPDQNIDVEALQVAFGSLYRDDVLIKPSRVVAILAAACLLQLDGLIQQCGETMKETVNVKTVCGYYTSAGTYGLDSVKKKCLEWLLNNLMTHQNVELFKELSINVMKQLIGSSNLFVMQVEMDIYTALKKWMFLQLVPSWNGSLKQLLTETDVWFSKQRKDFEGMAFLETEQGKPFVSVFRHLRLQYIISDLASARIIEQDAVVPSEWLSSVYKQQWFAMLRAEQDSEVGPQEINKEELEGNSMRCGRKLAKDGEYCWRWTGFNFGFDLLVTYTNRYIIFKRNTLNQPCSGSVSLQPRRSIAFRLRLASFDSSGKLICSRTTGYQILTLEKDQEQVVMNLDSRLLIFPLYICCNFLYISPEKKN

Variants of: B1
Conditions: with sdcb1_human SDCBP

Row | effect of a mutation on the interaction | Variant
1 | with no effect | MSSCSRVALVTGANRGIGLAIARELCRQFSGDVVLTARDVARGQAAVQQLQAEGLSPRFHQLDIDDLQSIRALRDFLRKEYGGLNVLVNNAAVAFKSDDPMPFDIKAEMTLKTNFFATRNMCNELLPIMKPHGRVVNISSLQCLRAFENCSEDLQERFHSETLTEGDLVDLMKKFVEDTKNEVHEREGWPNSPYGVSKLGVTVLSRILARRLDEKRKADRILVNACCPGPVKTDMDGKDSIRTMEEGAETPVYLALLPPDATEPQGQLVHDKVVQNW [V244M]
2 | with no effect | MSSCSRVALVTGANRGIGLAIARELCRQFSGDVVLTARDVARGQAAVQQLQAEGLSPRFHQLDIDDLQSIRALRDFLRKEYGGLNVLVNNAAVAFKSDDPMPFDIKAEMTLKTNFFATRNMCNELLPIMKSHGRVVNISSLQCLRAFENCSEDLQERFHSETLTEGDLVDLMKKFVEDTKNEVHEREGWPNSPYGVSKLGVTVLSRILARRLDEKRKADRILVNACCPGPVKTDMDGKDSIRTVEEGAETPVYLALLPPDATEPQGQLVHDKVVQNW [P131S]

Variants of: B2
Conditions: with psa1_human PSMA1, P25786
Chain of psa1_human PSMA1, P25786 (P25786 whole entry): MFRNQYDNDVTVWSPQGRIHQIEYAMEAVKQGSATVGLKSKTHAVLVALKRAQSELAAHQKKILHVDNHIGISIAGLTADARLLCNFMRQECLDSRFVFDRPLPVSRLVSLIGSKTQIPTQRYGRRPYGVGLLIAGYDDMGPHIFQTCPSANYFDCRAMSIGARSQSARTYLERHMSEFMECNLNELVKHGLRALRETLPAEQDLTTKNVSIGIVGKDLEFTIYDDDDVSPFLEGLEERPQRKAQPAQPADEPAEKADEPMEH

Row | effect of a mutation on the interaction | Variant
3 | with no effect | MASAASVTSLADEVNCPICQGTLREPVTIDCGHNFCRACLTRYCEIPGPDLEESPTCPLCKEPFHPGSFRPNWQLANVVENIERLQLVSTLGLGEEDVCQEHGEKIYFFCEDDEMQLCVVCREAGEHATHTMRFLEDAAAPYREQIHKCLKCLRKEREEIQEIQSRENKRMQVLLTQVSTKRQQVISEFAHLRKFLEEQQSILLAQLESQDGDILRQRDEFDLLVAGEICRFSALIEELEEKNERPARELLTDIRSTLIRCETRKCRKPVAVSPELGQRIRDFPQQALPLQREMKMFLEKLCFELDYEPAHISLDPQTSHPKLLLSEDHQRAQFSYKWQNSPDNPQRFDRATCVLAHTGITGGRHTWVVSIDLAHGGSCTVGVVSEDVQRKGELRLRPEEGVWAVRLAWGFVSALGSFPTRLTLKEQPRQVRVSLDYEVGWVTFTNAVTREPIYTFTASFTRKVIPFFGLWGRGSSFSLSS [R65H]

Variants of: B3
Conditions: with bex5_human BEX5, Q5H9J7
Chain of bex5_human BEX5, Q5H9J7 (Q5H9J7 whole entry): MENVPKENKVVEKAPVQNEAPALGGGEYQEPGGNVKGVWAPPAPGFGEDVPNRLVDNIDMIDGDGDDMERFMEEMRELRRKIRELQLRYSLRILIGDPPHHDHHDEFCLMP

Row | effect of a mutation on the interaction | Variant
4 | with no effect | MLLGQKSQRYKAEEGLQAQGEAPGLMDVQIPTAEEQKAASSSSTLIMGTLEEVTDSGSPSPPQSPEGASSSLTVTDSTLWSQSDEGSSSNEEEGPSTSPDPAHLESLFREALDEKVAELVHFLLRKYQIKEPVTKAEMLESVIKNYKNHFPDIFSKASECMQVIFGIDVKEVDPAGHSYILVTCLGLSYDGLLGDDQSTPKTGLLIIVLGMILMEGSRAPEEAIWEALSVMGLYDGREHSVYWKLRKLLTQEWVQENYLEYRQAPGSDPVRYEFLWGPRALAETSYVKVLEHVVRVNARVRISYPSLHEEALGEEKGV [R121H]
5 | with no effect | MLLGQKSQCYKAEEGLQAQGEAPGLMDVQIPTAEEQKAASSSSTLIMGTLEEVTDSGSPSPPQSPEGASSSLTVTDSTLWSQSDEGSSSNEEEGPSTSPDPAHLESLFREALDEKVAELVRFLLRKYQIKEPVTKAEMLESVIKNYKNHFPDIFSKASECMQVIFGIDVKEVDPAGHSYILVTCLGLSYDGLLGDDQSTPKTGLLIIVLGMILMEGSRAPEEAIWEALSVMGLYDGREHSVYWKLRKLLTQEWVQENYLEYRQAPGSDPVRYEFLWGPRALAETSYVKVLEHVVRVNARVRISYPSLHEEALGEEKGV [R9C]

Variants of: B4
Conditions: with cul3_human CUL3, Q13618

Row | effect of a mutation on the interaction | Variant
6 | with no effect | MGSLSSRVLRQPRPALAQQAQGARAGGSARRPDTGDDAAGHGFCYCAGSHKRKRSSGSFCYCHPDSETDEDEEEGDKQQRLLNTPRRKKLKSTSKYIYQTLFLNGENSDIKICALGEEWSLHKIYLCQSGYFSSMFSGSWKESSMNIIELEIPDQNIDVEALQVAFGSLYRDDVLIKPSRVVAILAAACLLQLDGLIQQCGETMKETVNVKTVCGYYTSAGTYGLDSVKKKCLEWLLNNLMTHQNVELFKELSINVMKQLIGSSNLFVMQVEMDIYTALKKWMFLQLVPSWNGSLKQLLTETDVWFSKQRKDFEGMAFLETEQGKPFVSVFRHLRLQYIISDLASARIIEQDAVVPSEWLSSVYKQQWFAMLRAEQDSEVGPQEINKEELEGNSMRCGRKLAKDGEYCWRWTGFNFGFDLLVTYTNRYIIFKRNTLNQPCSGSVSLQPRRSIAFRLRLASFDSSGKLICSRTTGYQILTLEKDQEQVVMNLDSRLLIFPLYICCNFLYISPEKKN [E77K]
7 | with no effect | MGSLSSRVLRQPRPALAQQAQGARAGGSARRPDTGDDAAGHGFCYCAGSHKRKRSSGSFCSCHPDSETDEDEEEGDEQQRLLNTPRRKKLKSTSKYIYQTLFLNGENSDIKICALGEEWSLHKIYLCQSGYFSSMFSGSWKESSMNIIELEIPDQNIDVEALQVAFGSLYRDDVLIKPSRVVAILAAACLLQLDGLIQQCGETMKETVNVKTVCGYYTSAGTYGLDSVKKKCLEWLLNNLMTHQNVELFKELSINVMKQLIGSSNLFVMQVEMDIYTALKKWMFLQLVPSWNGSLKQLLTETDVWFSKQRKDFEGMAFLETEQGKPFVSVFRHLRLQYIISDLASARIIEQDAVVPSEWLSSVYKQQWFAMLRAEQDSEVGPQEINKEELEGNSMRCGRKLAKDGEYCWRWTGFNFGFDLLVTYTNRYIIFKRNTLNQPCSGSVSLQPRRSIAFRLRLASFDSSGKLICSRTTGYQILTLEKDQEQVVMNLDSRLLIFPLYICCNFLYISPEKKN [Y61S]
8 | with no effect | MGSLSSRVLRQPRPALAQQAQGARAGGSARRPDTGDDAAGHGFCYCAGSHKRKRSSGSFCYCHPDSETDEDEEEGDEQQRLLNTPRRKKLKSTSKYIYQTLFLNGENSDIKICALGEEWSLHRIYLCQSGYFSSMFSGSWKESSMNIIELEIPDQNIDVEALQVAFGSLYRDDVLIKPSRVVAILAAACLLQLDGLIQQCGETMKETVNVKTVCGYYTSAGTYGLDSVKKKCLEWLLNNLMTHQNVELFKELSINVMKQLIGSSNLFVMQVEMDIYTALKKWMFLQLVPSWNGSLKQLLTETDVWFSKQRKDFEGMAFLETEQGKPFVSVFRHLRLQYIISDLASARIIEQDAVVPSEWLSSVYKQQWFAMLRAEQDSEVGPQEINKEELEGNSMRCGRKLAKDGEYCWRWTGFNFGFDLLVTYTNRYIIFKRNTLNQPCSGSVSLQPRRSIAFRLRLASFDSSGKLICSRTTGYQILTLEKDQEQVVMNLDSRLLIFPLYICCNFLYISPEKKN [K123R]

Variants of: B4
Conditions: with FAM167A

Row | effect of a mutation on the interaction | Variant
9 | with no effect | MGSLSSRVLRQPRPALAQQAQGARAGGSARRPDTGDDAAGHGFCYCAGSHKRKRSSGSFCYCHPDSETDEDEEEGDKQQRLLNTPRRKKLKSTSKYIYQTLFLNGENSDIKICALGEEWSLHKIYLCQSGYFSSMFSGSWKESSMNIIELEIPDQNIDVEALQVAFGSLYRDDVLIKPSRVVAILAAACLLQLDGLIQQCGETMKETVNVKTVCGYYTSAGTYGLDSVKKKCLEWLLNNLMTHQNVELFKELSINVMKQLIGSSNLFVMQVEMDIYTALKKWMFLQLVPSWNGSLKQLLTETDVWFSKQRKDFEGMAFLETEQGKPFVSVFRHLRLQYIISDLASARIIEQDAVVPSEWLSSVYKQQWFAMLRAEQDSEVGPQEINKEELEGNSMRCGRKLAKDGEYCWRWTGFNFGFDLLVTYTNRYIIFKRNTLNQPCSGSVSLQPRRSIAFRLRLASFDSSGKLICSRTTGYQILTLEKDQEQVVMNLDSRLLIFPLYICCNFLYISPEKKN [E77K]
10 | with no effect | MGSLSSRVLRQPRPALAQQAQGARAGGSARRPDTGDDAAGHGFCYCAGSHKRKRSSGSFCSCHPDSETDEDEEEGDEQQRLLNTPRRKKLKSTSKYIYQTLFLNGENSDIKICALGEEWSLHKIYLCQSGYFSSMFSGSWKESSMNIIELEIPDQNIDVEALQVAFGSLYRDDVLIKPSRVVAILAAACLLQLDGLIQQCGETMKETVNVKTVCGYYTSAGTYGLDSVKKKCLEWLLNNLMTHQNVELFKELSINVMKQLIGSSNLFVMQVEMDIYTALKKWMFLQLVPSWNGSLKQLLTETDVWFSKQRKDFEGMAFLETEQGKPFVSVFRHLRLQYIISDLASARIIEQDAVVPSEWLSSVYKQQWFAMLRAEQDSEVGPQEINKEELEGNSMRCGRKLAKDGEYCWRWTGFNFGFDLLVTYTNRYIIFKRNTLNQPCSGSVSLQPRRSIAFRLRLASFDSSGKLICSRTTGYQILTLEKDQEQVVMNLDSRLLIFPLYICCNFLYISPEKKN [Y61S]
11 | with no effect | MGSLSSRVLRQPRPALAQQAQGARAGGSARRPDTGDDAAGHGFCYCAGSHKRKRSSGSFCYCHPDSETDEDEEEGDEQQRLLNTPRRKKLKSTSKYIYQTLFLNGENSDIKICALGEEWSLHRIYLCQSGYFSSMFSGSWKESSMNIIELEIPDQNIDVEALQVAFGSLYRDDVLIKPSRVVAILAAACLLQLDGLIQQCGETMKETVNVKTVCGYYTSAGTYGLDSVKKKCLEWLLNNLMTHQNVELFKELSINVMKQLIGSSNLFVMQVEMDIYTALKKWMFLQLVPSWNGSLKQLLTETDVWFSKQRKDFEGMAFLETEQGKPFVSVFRHLRLQYIISDLASARIIEQDAVVPSEWLSSVYKQQWFAMLRAEQDSEVGPQEINKEELEGNSMRCGRKLAKDGEYCWRWTGFNFGFDLLVTYTNRYIIFKRNTLNQPCSGSVSLQPRRSIAFRLRLASFDSSGKLICSRTTGYQILTLEKDQEQVVMNLDSRLLIFPLYICCNFLYISPEKKN [K123R]
